Measurements as given in article PMC4882459.

Experiments:
[1] = target: ES-62 (Acanthocheilonema viteae); assay: SEC; HPLC on a G4000SW column in HBSC buffer (1 mM CaCl2); ES-62 injected, with or without CRP at 20 ug/ml in the column buffer, or with EDTA
[2] = target: Biotinylated C-reactive protein (human) (UniProt P02741); assay: SPR; Biacore 3000; biotinylated CRP or SAP captured to 200 RU on streptavidin on a CM5 chip; ES-62 flowed at 30 ul/min in HBS pH 7.4 with 1 mM CaCl2 and 0.005% P20; regeneration with 3 mM EDTA; ka and kd calculated separately
Chain of Biotinylated C-reactive protein (human) (P02741 19-224): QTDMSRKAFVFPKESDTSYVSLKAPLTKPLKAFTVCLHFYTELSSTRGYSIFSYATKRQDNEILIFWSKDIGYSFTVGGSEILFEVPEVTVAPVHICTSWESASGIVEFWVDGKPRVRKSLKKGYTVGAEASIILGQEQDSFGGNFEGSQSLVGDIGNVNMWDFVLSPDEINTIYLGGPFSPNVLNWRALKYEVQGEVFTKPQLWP

**Q.** With ES-62 (natural protein) as the substance, how does the stoichiometry N [1] read?
**A.** 4

**Q.** And the koff [2]?
**A.** 0.0013 to 0.0014 s⁻¹

**Q.** What about the kon [2] of the same substance?
**A.** 100000 to 1e+06 M⁻¹ s⁻¹
